We go through three molecules from paper PMC9814530, “Rapid de novo discovery of peptidomimetic affinity reagents for human angiotensin converting enzyme 2” (Communications Chemistry, 2022).

Where no end group is shown, it is not given here.

B1: ACE2-binding peptide ABP C8 (peptide)
chain: LQWHPAYWFMQVK-NH2
modifications: also: biotinylated, position not given here
B2: ACE2-binding peptide ABP C3 (peptide)
chain: LHKQFGWHWFGFK-NH2
modifications: also: biotinylated, position not given here
B3: ACE2-binding peptide ABP C7 (peptide)
chain: LQRGVFGFPYRVK-NH2
modifications: also: biotinylated, position not given here

The test deals with T1, human angiotensin converting enzyme 2 (ACE2), recombinant (human, UniProt Q9BYF1 18-740).
T1 construct: also called soluble ACE2; recombinant ACE2 protein; source: bought: Sino Biological (Catalog number 10108-H08H) for BLI
T1 sequence (Q9BYF1 18-740): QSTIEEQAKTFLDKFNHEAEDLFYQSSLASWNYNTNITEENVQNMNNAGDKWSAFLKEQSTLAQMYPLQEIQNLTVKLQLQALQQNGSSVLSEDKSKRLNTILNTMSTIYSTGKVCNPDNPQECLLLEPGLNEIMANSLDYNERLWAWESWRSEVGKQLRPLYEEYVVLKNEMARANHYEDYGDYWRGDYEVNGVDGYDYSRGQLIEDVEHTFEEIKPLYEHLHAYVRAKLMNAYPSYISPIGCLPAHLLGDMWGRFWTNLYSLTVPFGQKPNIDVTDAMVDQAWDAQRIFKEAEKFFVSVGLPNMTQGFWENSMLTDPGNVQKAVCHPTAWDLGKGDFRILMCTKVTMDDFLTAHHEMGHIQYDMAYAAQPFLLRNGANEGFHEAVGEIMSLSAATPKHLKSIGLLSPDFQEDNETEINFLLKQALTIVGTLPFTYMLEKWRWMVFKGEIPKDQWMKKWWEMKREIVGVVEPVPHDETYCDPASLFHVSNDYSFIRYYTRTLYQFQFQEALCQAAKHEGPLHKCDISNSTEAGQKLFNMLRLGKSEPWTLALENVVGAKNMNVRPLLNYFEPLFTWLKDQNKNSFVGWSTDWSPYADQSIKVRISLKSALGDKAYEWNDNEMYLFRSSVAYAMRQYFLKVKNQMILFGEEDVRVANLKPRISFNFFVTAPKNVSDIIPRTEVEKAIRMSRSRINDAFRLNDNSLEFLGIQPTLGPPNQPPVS
Briefly: BLI; biotinylated peptide immobilised on streptavidin tips (loaded at 1.0-2.0 uM); protein in solution (ACE2 at 1000, 500, 250, 125 and 62.5 nM); 30 °C, 1000 rpm; 1 x PBS with 0.1% BSA and 0.02% Tween-20; 180 s association; global 1:1 fit; apparent KD. To be noted: both partners purified. (In general: In BLI a coated tip is dipped into the sample, and binding shifts an interference pattern.)
Consider B1, for which the Kd is 36 nM.

On to B2, for which the Kd stood at 35 nM.

As to B3, the Kd amounted to 26 nM.
